Experimental data as given in patent US20250223358A1 (ANTENGENE BIOLOGICS, published 2025).
Changes are numbered by the printed parent chain. Numbers in names are those of the source.

B1: hu147E2-L1H3 (antibody, V domains shown)
VH: EVQLVQSGAEVKKPGSSVKVSCKASGYTFTSYWMHWVRQAPGQGLEWMGNINPSNGATNYNEKFKSRVTLTVDKSTSTAYMELSSLRSEDTAVYYCARDRSSQYYFDYWGQGTTVTVSS
VL: DIVMTQSPDSLAVSLGERATINCKSSQSLLNSRSRKNYLAWYQQKPGQPPKLLIYWASTRESGVPDRFSGSGSGTDFTLTISSLQAEDVAVYYCTQSYTLRTFGGGTKVEIK
notes: humanized 147E11E2; also called hu14E2-L1H3
B2: hu147E2-L1H3b (antibody, V domains shown)
VH: B1 VH with N55S
VL: B1 VL
notes: humanized 147E11E2 with N55S in HCDR2 (deamidation site removed); also called hu14E2-L1H3b
B3: hu147E2-L1H2 (antibody, V domains shown)
VH: B1 VH with L70I, V72A
VL: B1 VL
notes: humanized 147E11E2; also called hu14E2-L1H2
B4: hu147E2-L1H4 (antibody, V domains shown)
VH: B1 VH with M48I, V68A
VL: B1 VL
notes: humanized 147E11E2; also called hu14E2-L1H4
B5: hu147E2-L1H3a (antibody, V domains shown)
VH: B1 VH with N55Q
VL: B1 VL
notes: humanized 147E11E2 with N55Q in HCDR2 (deamidation site removed); also called hu14E2-L1H3a
B6: hu147E2-L2H3 (antibody, V domains shown)
VH: B1 VH
VL: B1 VL with P49S
notes: humanized 147E11E2; also called hu14E2-L2H3
B7: hu147E2-L2H2 (antibody, V domains shown)
VH: B1 VH with L70I, V72A
VL: B1 VL with P49S
notes: humanized 147E11E2; also called hu14E2-L2H2
B8: hu147E2-L2H4 (antibody, V domains shown)
VH: B1 VH with M48I, V68A
VL: B1 VL with P49S
notes: humanized 147E11E2; also called hu14E2-L2H4
B9: hu40E9-L2H8 (antibody, V domains shown)
VH: EVQLVQSGAEVKKPGSSVKVSCKASGYTFSSYVIHWVRQAPGQGLEWMGYINPGNDVIKYNEKFKGRVTLTSDKSTSTAYMELSSLRSEDTAVYYCARESYSSYDGFAYWGQGTLVTVSS
VL: EIVLTQSPDFQSVTPKEKVTITCSASSSVSYMHWYQQKPDQSPKRLIYDTSKLASGVPSRFSGSGSGTDFTLTINSLEAEDAATYYCQQWSSNPPTFGGGTKVEIK
B10: hu40E9-L4H7 (antibody, V domains shown)
VH: B9 VH with D56G, E99D
VL: B9 VL with S91R, N93R
B11: hu40E9-L4H8 (antibody, V domains shown)
VH: B9 VH
VL: B9 VL with S91R, N93R
B12: hu40E9-L2H14 (antibody, V domains shown)
VH: B9 VH with G54Y, S102Y
VL: B9 VL
B13: hu40E9-L6H3 (antibody, V domains shown)
VH: B9 VH with G54Y, E99D, S102Y
VL: B9 VL with S91R, N93W
B14: hu40E9-L2H12 (antibody, V domains shown)
VH: B9 VH with G54Y, E99D, S100D, S102Y
VL: B9 VL
B15: hu40E9-L2H13 (antibody, V domains shown)
VH: B9 VH with G54Y, E99D, S100G, S102Y
VL: B9 VL
B16: hu40E9-L2H16 (antibody, V domains shown)
VH: B9 VH with S31D, G54Y, E99D, S102Y
VL: B9 VL
B17: hu40E9-L2H10 (antibody, V domains shown)
VH: B9 VH with G54Y, E99D, S102Y, D105E, G106A
VL: B9 VL
B18: hu40E9-L2H15 (antibody, V domains shown)
VH: B9 VH with G54Y, E99G, S102Y
VL: B9 VL
B19: hu40E9-L5H3 (antibody, V domains shown)
VH: B9 VH with G54Y, E99D, S102Y
VL: B9 VL with S91R, N93S
B20: hu40E9-L4H3 (antibody, V domains shown)
VH: B9 VH with G54Y, E99D, S102Y
VL: B9 VL with S91R, N93R
B21: hu40E9-L5H7 (antibody, V domains shown)
VH: B9 VH with D56G, E99D
VL: B9 VL with S91R, N93S
B22: hu40E9-L2H9 (antibody, V domains shown)
VH: B9 VH with G54Y, N55S, Y101F, S102Y
VL: B9 VL
B23: hu40E9-L2H11 (antibody, V domains shown)
VH: B9 VH with G54Y, E99D, S102Y, D105R, G106A
VL: B9 VL
B24: hu40E9-L5H8 (antibody, V domains shown)
VH: B9 VH
VL: B9 VL with S91R, N93S

What follows are binders tested against T1, cynomolgus CD3 (cynomolgus (Macaca fascicularis), UniProt Q95LI5 22-198; Q95LI8 22-171; Q95LI7 23-181) (assay: FACS on 293T-cynoCD3mix cells).
T1 construct: whole, on cells; composition of the 'mix' not defined; also called cynoCD3
T1 sequence (Q95LI5 22-198, chain 1 of 3): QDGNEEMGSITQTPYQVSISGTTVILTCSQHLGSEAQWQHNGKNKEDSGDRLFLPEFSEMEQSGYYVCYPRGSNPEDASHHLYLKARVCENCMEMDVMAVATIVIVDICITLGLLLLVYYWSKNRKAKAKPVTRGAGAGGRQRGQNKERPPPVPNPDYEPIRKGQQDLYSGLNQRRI
T1 sequence (Q95LI8 22-171, chain 2 of 3): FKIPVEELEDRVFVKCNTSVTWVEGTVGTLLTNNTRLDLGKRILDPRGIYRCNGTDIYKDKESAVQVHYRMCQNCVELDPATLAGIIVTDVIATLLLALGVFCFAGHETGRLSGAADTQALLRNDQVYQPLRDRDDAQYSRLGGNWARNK
T1 sequence (Q95LI7 23-181, chain 3 of 3): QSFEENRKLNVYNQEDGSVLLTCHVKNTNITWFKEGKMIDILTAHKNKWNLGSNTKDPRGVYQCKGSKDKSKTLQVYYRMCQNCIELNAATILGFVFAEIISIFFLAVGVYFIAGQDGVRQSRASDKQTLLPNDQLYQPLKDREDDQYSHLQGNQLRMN

Row | Binder | EC50 [nM] | Top signal
1 | B1 | 1.51 | 19200
2 | B2 | 1.68 | 21100
3 | B3 | 2.01 | 19700
4 | B4 | 1.31 | 18700
5 | B5 | 1.66 | 20700
6 | B6 | 1.86 | 21000
7 | B7 | 1.64 | 20500
8 | B8 | 2.02 | 21200

Each binder was assayed against T2, human CD3 (human, UniProt P07766 23-207; P04234 22-171; P09693 23-182) (assay: cell-based or functional assay).
T2 sequence (P07766 23-207, chain 1 of 3): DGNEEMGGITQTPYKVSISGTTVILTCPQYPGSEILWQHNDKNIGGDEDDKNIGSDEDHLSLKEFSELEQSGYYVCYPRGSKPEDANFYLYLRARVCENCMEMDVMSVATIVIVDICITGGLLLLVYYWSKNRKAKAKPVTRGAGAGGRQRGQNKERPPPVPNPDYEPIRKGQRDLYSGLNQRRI
T2 sequence (P04234 22-171, chain 2 of 3): as the sequence (Q95LI8 22-171, chain 2 of 3) above, with V5I, K15N, V20I, T32S, N33D, N34I, A64T, N74S, L83V, R141H counted along it
T2 sequence (P09693 23-182, chain 3 of 3): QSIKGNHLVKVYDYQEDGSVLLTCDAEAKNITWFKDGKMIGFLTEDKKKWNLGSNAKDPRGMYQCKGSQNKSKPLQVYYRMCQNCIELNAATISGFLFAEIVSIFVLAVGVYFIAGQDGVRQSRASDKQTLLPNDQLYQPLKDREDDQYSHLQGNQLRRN

Row | Binder | EC50_Fold change (Jurkat-NFAT-luciferase activation, normalized to ch40-C12-C10-E9) [fold] | Top signal_Fold change (Jurkat-NFAT-luciferase activation, normalized to ch40-C12-C10-E9) [fold]
9 | B9 | 18.4 | 0.69
10 | B10 | 1.95 | 1.12
11 | B11 | – | 0.32
12 | B12 | 3.86 | 0.96
13 | B13 | 4.34 | 0.95
14 | B14 | 21.3 | 0.73
15 | B15 | 3.08 | 0.51
16 | B16 | 6.18 | 1.35
17 | B17 | 12.6 | 1.01
18 | B18 | 98.6 | 0.75
19 | B19 | 23.2 | 1.47
20 | B20 | 1.82 | 1.08
21 | B21 | 3.41 | 1.15
22 | B22 | 2.49 | 0.87
23 | B23 | 2.97 | 0.85
24 | B24 | – | 0.3

What follows are binders tested against T2, human CD3 (assay: FACS on Jurkat cells).

Row | Binder | EC50 [nM] | Top FACS signal
25 | B9 | 28 | 1240
26 | B10 | 1.52 | 1900
27 | B11 | 26.9 | 255
28 | B12 | 0.43 | 2020
29 | B13 | 0.8 | 1990
30 | B14 | 72.9 | 850
31 | B15 | 83.7 | 2050
32 | B16 | 1.27 | 2010
33 | B17 | 2.55 | 1680
34 | B18 | 51.7 | 796
35 | B19 | 0.66 | 2490
36 | B20 | 1.59 | 2490
37 | B21 | 0.48 | 1850
38 | B22 | 0.56 | 1760
39 | B23 | 5 | 2000
40 | B24 | 25.4 | 531

Biological target: T2, human CD3
Assay: cell-based or functional assay
Remark: another data set of the same source

Row | Binder | EC50_Fold change (Jurkat-NFAT-luciferase activation, normalized to ch147E11E2) [fold] | Top FACS signal_Fold change (Jurkat-NFAT-luciferase activation, normalized to ch147E11E2) [fold]
41 | B1 | 1.98 | 1
42 | B2 | 1.73 | 0.87
43 | B4 | 1.21 | 0.92
44 | B6 | 1.65 | 0.78
45 | B7 | 1.4 | 0.9
46 | B8 | 1.24 | 0.99
